From PMC8882189, “Identification of Nanog as a novel inhibitor of Rad51” (Cell Death & Disease, 2022) come the findings set out here.

The assay deals with T1, His-tagged Rad51 (mouse, UniProt Q08297 1-339).
T1 construct: Rad51, mouse; The bacterial expression construct is not described; source: bacterially expressed, purified (Ni superflow beads)
T1 sequence (looked up): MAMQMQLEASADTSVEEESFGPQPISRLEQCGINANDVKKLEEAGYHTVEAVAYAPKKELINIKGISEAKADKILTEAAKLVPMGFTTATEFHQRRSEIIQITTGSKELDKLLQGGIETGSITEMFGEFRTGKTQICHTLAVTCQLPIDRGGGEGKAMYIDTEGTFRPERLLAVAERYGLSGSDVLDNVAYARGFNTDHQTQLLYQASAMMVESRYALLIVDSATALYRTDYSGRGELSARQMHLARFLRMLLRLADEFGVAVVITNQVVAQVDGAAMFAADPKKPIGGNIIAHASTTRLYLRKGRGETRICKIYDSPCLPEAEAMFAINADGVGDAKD
Description: pull-down; purified GST-tagged Nanog or fragments on glutathione-sepharose beads, incubated with purified His-tagged Rad51 at 4 °C overnight; washed 4 times with lysis buffer; western blot with anti-Rad51. The conditions noted are these: both partners purified. (A western blot detects proteins with antibodies after separation by electrophoresis.)

B1: GST-tagged Nanog (natural protein, mouse, UniProt Q80Z64 1-305, looked up)
chain: MSVGLPGPHSLPSSEEASNSGNASSMPAVFHPENYSCLQGSATEMLCTEAASPRPSSEDLPLQGSPDSSTSPKQKLSSPEADKGPEEEENKVLARKQKMRTVFSQAQLCALKDRFQKQKYLSLQQMQELSSILNLSYKQVKTWFQNQRMKCKRWQKNQWLKTSNGLIQKGSAPVEYPSIHCSYPQGYLVNASGSLSMWGSQTWTNPTWSSQTWTNPTWNNQTWTNPTWSSQAWTAQSWNGQPWNAAPLHNFGEDFLQPYVQLQQNFSASDLEVNLEATRESHAHFSTPQALELFLNYSVTPPGEI
notes: Nanog, mouse; The bacterial expression construct is not described; also called full-length Nanog; FL; source: E. coli BL21, purified (Glutathione-Sepharose)
B1: the binding result was “binds”.
